Here are results for two substances from paper PMC2901902.

In test [1] the target is histone H3 acetylated at lysine 14 in C2C12 chromatin (mouse (endogenous in C2C12)) (UniProt P68433). Kind of test: re-ChIP.
In test [2] the target is DPF3b PHD12 with Ala mutation of Glu315 or Asp335. Description: ITC. On the technique in general: ITC needs no label: the signal is the heat of the interaction.

In the case of EGFP-DPF3b D263A or F264A mutant, the fold reduction of co-occupancy (against wild type DPF3b) in test [1] was in the range of 2 to 3 fold.

As to “histone H3 peptide acetylated at lysine 14 (residues 1–18) (from UniProt P68431 2-19)”, in test [2], the fold reduction in affinity (against wild type PHD12) lay in the range of 80 to 250 fold.
